Results as given in PMC6938246.

Tests used:
[1] = target: filamentous actin (F-actin) (rabbit) (UniProt P68135); test: co-sedimentation
[2] = target: filamentous actin (F-actin) (rabbit) (UniProt P68135); test: single-molecule TIRF microscopy

utrophin actin-binding domain (CH1–CH2), wild type, sequence (P46939 31-256): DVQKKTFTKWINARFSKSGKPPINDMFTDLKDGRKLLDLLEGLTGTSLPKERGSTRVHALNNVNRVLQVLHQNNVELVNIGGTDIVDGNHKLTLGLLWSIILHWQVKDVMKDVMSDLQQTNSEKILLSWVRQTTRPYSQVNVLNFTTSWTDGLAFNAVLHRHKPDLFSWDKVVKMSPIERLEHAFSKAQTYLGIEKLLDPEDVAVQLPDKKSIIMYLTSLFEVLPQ
utrophin actin-binding domain with residues 1–27 truncated (Δ-n-term), sequence (P46939 28-3433, stated change not applied): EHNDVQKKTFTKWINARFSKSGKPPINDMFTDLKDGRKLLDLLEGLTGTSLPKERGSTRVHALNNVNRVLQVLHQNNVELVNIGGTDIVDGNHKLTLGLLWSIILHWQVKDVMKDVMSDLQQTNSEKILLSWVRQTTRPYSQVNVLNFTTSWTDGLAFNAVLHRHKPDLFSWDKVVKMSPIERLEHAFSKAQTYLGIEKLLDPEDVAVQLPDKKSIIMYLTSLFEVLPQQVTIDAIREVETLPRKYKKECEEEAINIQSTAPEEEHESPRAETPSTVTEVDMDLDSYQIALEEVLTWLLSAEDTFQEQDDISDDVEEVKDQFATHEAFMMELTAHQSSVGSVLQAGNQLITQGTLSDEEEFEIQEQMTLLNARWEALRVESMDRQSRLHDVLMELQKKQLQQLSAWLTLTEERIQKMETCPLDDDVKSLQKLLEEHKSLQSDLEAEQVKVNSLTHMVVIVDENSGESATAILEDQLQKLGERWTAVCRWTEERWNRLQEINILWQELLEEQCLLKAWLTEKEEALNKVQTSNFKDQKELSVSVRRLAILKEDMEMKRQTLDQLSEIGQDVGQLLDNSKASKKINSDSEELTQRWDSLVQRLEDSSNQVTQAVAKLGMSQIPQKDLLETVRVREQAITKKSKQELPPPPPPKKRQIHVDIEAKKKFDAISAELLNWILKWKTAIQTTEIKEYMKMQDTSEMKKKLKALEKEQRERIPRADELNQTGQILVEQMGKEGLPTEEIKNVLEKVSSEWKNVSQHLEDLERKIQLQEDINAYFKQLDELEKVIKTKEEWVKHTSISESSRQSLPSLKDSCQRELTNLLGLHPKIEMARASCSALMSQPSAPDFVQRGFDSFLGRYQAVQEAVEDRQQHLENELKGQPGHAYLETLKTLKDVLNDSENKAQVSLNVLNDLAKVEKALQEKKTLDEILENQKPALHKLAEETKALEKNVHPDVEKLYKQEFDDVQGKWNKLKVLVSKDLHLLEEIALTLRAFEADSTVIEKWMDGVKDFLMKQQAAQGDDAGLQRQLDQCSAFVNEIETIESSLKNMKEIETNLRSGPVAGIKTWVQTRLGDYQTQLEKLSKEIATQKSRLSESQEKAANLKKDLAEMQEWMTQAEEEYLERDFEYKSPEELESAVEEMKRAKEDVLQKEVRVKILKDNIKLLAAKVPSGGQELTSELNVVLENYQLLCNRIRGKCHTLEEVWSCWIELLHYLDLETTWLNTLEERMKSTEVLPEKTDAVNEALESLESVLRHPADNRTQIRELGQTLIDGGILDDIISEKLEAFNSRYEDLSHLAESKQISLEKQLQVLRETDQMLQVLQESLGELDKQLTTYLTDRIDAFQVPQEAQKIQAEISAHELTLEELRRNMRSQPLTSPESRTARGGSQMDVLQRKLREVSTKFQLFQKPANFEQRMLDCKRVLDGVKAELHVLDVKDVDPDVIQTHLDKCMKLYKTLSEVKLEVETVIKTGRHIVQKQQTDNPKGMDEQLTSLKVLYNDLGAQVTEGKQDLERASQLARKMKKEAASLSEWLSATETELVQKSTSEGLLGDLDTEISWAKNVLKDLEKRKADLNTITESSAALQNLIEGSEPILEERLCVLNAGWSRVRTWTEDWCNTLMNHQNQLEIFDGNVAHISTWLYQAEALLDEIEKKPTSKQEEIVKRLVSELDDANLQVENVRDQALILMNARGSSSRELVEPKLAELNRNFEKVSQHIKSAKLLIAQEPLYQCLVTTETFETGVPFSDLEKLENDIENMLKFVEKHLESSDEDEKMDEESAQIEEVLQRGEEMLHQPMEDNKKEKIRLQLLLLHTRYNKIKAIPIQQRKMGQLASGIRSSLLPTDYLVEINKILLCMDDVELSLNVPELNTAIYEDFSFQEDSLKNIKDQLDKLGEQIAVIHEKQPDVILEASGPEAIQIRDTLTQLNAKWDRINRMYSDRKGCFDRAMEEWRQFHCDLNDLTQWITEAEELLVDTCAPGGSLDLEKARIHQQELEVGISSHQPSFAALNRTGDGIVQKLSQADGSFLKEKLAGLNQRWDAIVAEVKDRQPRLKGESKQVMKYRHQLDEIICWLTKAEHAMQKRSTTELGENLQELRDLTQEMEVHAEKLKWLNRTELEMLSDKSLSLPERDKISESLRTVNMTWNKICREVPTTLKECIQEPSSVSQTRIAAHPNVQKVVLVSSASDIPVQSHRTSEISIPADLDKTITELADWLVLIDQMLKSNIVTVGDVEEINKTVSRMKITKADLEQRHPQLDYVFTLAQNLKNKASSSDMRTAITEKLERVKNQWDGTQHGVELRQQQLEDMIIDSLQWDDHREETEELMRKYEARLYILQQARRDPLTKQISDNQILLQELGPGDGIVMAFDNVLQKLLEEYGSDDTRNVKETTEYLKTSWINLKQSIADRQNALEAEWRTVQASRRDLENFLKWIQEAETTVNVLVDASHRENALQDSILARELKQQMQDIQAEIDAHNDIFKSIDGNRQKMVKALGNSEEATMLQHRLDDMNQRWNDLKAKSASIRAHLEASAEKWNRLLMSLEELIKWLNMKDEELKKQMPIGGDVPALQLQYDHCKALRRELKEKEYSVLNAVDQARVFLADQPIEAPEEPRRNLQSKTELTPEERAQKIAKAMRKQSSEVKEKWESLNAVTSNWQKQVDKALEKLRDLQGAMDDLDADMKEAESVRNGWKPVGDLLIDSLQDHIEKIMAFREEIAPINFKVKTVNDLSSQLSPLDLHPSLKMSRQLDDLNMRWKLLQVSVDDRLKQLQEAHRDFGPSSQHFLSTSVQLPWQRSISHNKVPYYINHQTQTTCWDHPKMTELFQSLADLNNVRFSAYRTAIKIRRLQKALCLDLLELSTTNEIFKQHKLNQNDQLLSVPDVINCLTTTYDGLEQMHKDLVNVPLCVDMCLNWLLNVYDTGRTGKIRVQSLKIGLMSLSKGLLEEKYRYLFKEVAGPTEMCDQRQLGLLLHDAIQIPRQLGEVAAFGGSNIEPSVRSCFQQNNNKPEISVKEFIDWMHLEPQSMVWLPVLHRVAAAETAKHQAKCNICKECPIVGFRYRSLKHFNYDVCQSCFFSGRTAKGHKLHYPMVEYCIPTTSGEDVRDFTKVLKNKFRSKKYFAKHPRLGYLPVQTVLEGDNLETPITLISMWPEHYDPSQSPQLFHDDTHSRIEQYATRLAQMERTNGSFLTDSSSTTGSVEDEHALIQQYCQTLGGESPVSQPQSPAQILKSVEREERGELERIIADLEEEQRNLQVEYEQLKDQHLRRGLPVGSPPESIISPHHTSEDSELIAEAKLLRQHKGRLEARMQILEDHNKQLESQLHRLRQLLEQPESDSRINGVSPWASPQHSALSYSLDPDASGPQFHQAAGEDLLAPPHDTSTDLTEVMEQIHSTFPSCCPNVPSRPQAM
plectin actin-binding domain (CH1–CH2) (domain or fragment), sequence (Q15149 60-293): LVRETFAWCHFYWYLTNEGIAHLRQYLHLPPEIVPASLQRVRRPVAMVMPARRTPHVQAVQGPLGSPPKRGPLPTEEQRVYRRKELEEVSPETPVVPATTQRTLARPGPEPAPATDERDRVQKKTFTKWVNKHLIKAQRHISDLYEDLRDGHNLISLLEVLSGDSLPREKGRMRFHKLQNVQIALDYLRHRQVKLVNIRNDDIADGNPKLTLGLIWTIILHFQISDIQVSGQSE

Row | Substance | Kd [1] [µM] | mean dwell time of binding events [2] [s]
1 | plectin actin-binding domain (CH1–CH2) (domain or fragment) | 120 | –
2 | plectin actin-binding domain K278E (domain or fragment) | 45.1 | –
3 | utrophin actin-binding domain S158C, unconjugated (from UniProt P46939 31-256) (domain or fragment) | 12.5 | –
4 | utrophin actin-binding domain with residues 1–27 truncated (Δ-n-term) (from UniProt P46939 28-3433) (domain or fragment) | 31.4 | –

More lines, in order of falling Kd [1], values ahead:

Row | Kd [1] [µM] | mean dwell time of binding events [2] [s] | Substance
5 | 53.8 | – | utrophin actin-binding domain S158C conjugated with maleimide-750Da PEG (from UniProt P46939 31-256) (domain or fragment)
6 | 13.8 | 0.96 | utrophin actin-binding domain (CH1–CH2), wild type (from UniProt P46939 31-256) (domain or fragment)
7 | 0.4 | 8.49 | utrophin actin-binding domain Q33A T36A (from UniProt P46939 31-256) (domain or fragment)
